Measured values taken from IntAct's records for PubMed 18264113.

B1: Histone-lysine N-methyltransferase EHMT2 (Mus musculus), Q9Z148-1 (parent)
chain: MRGLPRGRGLMRARGRGRAAPTGGRGRGRGGAHRGRGRPRSLLSLPRAQASWAPQLPAGLTGPPVPCLPSQGEAPAEMGALLLEKEPRGAAERVHSSLGDTPQSEETLPKANPDSLEPAGPSSPASVTVTVGDEGADTPVGAASLIGDEPESLEGDGGRIVLGHATKSFPSSPSKGGACPSRAKMSMTGAGKSPPSVQSLAMRLLSMPGAQGAATAGPEPSPATTAAQEGQPKVHRARKTMSKPSNGQPPIPEKRPPEVQHFRMSDDMHLGKVTSDVAKRRKLNSGSLSEDLGSAGGSGDIILEKGEPRPLEEWETVVGDDFSLYYDAYSVDERVDSDSKSEVEALAEQLSEEEEEEEEEEEEEEEEEEEEEEEEEDEESGNQSDRSGSSGRRKAKKKWRKDSPWVKPSRKRRKREPPRAKEPRGVNGVGSSGPSEYMEVPLGSLELPSEGTLSPNHAGVSNDTSSLETERGFEELPLCSCRMEAPKIDRISERAGHKCMATESVDGELLGCNAAILKRETMRPSSRVALMVLCEAHRARMVKHHCCPGCGYFCTAGTFLECHPDFRVAHRFHKACVSQLNGMVFCPHCGEDASEAQEVTIPRGDGGTPPIGTAAPALPPLAHDAPGRADTSQPSARMRGHGEPRRPPCDPLADTIDSSGPSLTLPNGGCLSAVGLPPGPGREALEKALVIQESERRKKLRFHPRQLYLSVKQGELQKVILMLLDNLDPNFQSDQQSKRTPLHAAAQKGSVEICHVLLQAGANINAVDKQQRTPLMEAVVNNHLEVARYMVQLGGCVYSKEEDGSTCLHHAAKIGNLEMVSLLLSTGQVDVNAQDSGGWTPIIWAAEHKHIDVIRMLLTRGADVTLTDNEENICLHWASFTGSAAIAEVLLNAQCDLHAVNYHGDTPLHIAARESYHDCVLLFLSRGANPELRNKEGDTAWDLTPERSDVWFALQLNRKLRLGVGNRAVRTEKIICRDVARGYENVPIPCVNGVDGEPCPEDYKYISENCETSTMNIDRNITHLQHCTCVDDCSSSNCLCGQLSIRCWYDKDGRLLQEFNKIEPPLIFECNQACSCWRSCKNRVVQSGIKVRLQLYRTAKMGWGVRALQTIPQGTFICEYVGELISDAEADVREDDSYLFDLDNKDGEVYCIDARYYGNISRFINHLCDPNIIPVRVFMLHQDLRFPRIAFFSSRDIRTGEELGFDYGDRFWDIKSKYFTCQCGSEKCKHSAEAIALEQSRLARLDPHPELLPDLSSLPPINT

Variants of: B1
Conditions: with gfi1_human GFI1, Q99684
gfi1_human GFI1, Q99684, sequence (Q99684 whole entry): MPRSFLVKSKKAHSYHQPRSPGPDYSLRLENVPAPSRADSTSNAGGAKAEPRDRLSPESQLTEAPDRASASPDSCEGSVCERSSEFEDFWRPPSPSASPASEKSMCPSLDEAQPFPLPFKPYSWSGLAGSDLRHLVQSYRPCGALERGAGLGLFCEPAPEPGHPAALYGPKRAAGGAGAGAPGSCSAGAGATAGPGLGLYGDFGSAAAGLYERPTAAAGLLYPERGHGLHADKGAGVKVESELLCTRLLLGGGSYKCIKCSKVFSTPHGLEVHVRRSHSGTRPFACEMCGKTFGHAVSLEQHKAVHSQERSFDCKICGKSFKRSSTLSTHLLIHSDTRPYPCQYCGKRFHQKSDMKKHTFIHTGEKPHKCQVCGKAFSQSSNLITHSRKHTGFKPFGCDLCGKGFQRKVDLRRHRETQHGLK

**Q.** How did the “effect of a mutation on the interaction” value turn out when E847A was run?
**A.** decreasing interaction

**Q.** With W839A as the variant, how does the “effect of a mutation on the interaction” value read?
**A.** decreasing interaction

Variants of: B1
Conditions: with ncoa2_mouse Ncoa2, Q61026
ncoa2_mouse Ncoa2, Q61026, sequence (Q61026 whole entry): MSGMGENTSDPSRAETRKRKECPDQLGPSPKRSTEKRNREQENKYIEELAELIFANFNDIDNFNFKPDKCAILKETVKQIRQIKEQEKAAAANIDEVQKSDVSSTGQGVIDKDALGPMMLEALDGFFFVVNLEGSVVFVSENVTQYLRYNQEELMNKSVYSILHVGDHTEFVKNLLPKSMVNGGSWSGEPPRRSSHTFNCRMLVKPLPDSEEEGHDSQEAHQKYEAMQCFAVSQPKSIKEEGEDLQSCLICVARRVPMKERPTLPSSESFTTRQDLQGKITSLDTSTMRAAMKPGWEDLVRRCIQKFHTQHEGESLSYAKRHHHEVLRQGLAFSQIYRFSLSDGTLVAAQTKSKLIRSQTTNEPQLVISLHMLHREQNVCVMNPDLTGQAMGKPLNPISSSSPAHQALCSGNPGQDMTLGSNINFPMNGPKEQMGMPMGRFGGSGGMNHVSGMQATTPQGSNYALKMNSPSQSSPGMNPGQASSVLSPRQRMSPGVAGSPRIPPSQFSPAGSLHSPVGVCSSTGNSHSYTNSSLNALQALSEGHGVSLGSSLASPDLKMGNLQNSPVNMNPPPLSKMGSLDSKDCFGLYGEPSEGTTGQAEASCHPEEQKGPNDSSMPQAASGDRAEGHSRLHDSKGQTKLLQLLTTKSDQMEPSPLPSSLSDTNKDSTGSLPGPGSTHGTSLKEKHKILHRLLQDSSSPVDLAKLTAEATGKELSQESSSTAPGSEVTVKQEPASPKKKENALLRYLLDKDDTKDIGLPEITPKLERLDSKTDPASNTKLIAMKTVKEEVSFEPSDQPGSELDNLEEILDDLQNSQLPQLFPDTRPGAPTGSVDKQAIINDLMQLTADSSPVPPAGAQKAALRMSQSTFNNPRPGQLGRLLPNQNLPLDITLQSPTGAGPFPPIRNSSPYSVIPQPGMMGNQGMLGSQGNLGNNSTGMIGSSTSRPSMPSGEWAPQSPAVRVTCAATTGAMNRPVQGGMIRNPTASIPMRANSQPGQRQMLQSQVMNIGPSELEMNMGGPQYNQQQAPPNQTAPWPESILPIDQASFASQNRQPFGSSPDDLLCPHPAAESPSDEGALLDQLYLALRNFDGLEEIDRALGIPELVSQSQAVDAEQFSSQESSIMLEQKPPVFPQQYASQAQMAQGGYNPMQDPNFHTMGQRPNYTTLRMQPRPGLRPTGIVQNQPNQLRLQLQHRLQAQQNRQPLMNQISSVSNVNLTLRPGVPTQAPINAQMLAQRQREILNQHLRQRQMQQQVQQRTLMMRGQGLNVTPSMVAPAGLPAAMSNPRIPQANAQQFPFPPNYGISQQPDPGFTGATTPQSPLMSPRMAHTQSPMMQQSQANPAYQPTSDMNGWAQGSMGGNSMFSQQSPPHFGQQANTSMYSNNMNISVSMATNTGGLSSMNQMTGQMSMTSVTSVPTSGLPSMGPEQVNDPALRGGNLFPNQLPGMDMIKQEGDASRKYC

**Q.** E847A was tested. Which “effect of a mutation on the interaction” value did it give?
**A.** decreasing interaction
